A word on the IC50: it is the concentration at which inhibition is half-maximal. Read a low IC50 as greater potency. Usually Kd stands for a measure of binding affinity in units of concentration. High values mean a looser complex, low ones a tighter complex.

Experiment [1] concerns the target T1, human GITR-Fc (human, UniProt Q9Y5U5 26-162, conjugated with europium cryptate in the HTRF assays).
T1 construct: also called hGITR-Fc; hGITRFc; not shown: Fc domain of hIgG1
T1 sequence: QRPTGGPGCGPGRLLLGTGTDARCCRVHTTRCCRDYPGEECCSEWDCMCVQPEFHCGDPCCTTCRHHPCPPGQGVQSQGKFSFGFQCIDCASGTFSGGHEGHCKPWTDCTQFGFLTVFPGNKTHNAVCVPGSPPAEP
Description: HTRF competition: titrated FP against binding of GITRL-HA (anti-HA XL665) to europium cryptate hGITR-Fc. The protocol:
(§1) The effect of the GITRL FP molecules on human GITRL binding to human GITR was determined using a Homogeneous Time Resolved Fluorescence (HTRF) assay.
(§2) The GITRL FP molecules were titrated into an HTRF assay in which binding of GITRL-HA (hemagglutinin tag) to GITR-Fc was measured. The human GITR Fc was conjugated with europium cryptate and an anti-HA antibody conjugated with XL665 was used to detect the GITRL-HA protein. IC₅₀ values were determined by curve fitting the analyzed data to a four parameter logistic equation with Prism 5.01 software (GraphPad).
On the technique in general: TR-FRET usually uses a lanthanide donor and a delayed reading to cut background.

The target of experiment [2] is T1, human GITR-Fc. The description is as above. Here is the method:
as §1, §2
This is another data set of the same source.

Experiment [3] deals with T1, human GITR-Fc. Kind of experiment: HTRF direct binding, Eu cryptate hGITR-Fc and anti-FLAG XL665, one site saturation fit. The protocol:
The hGITRL FP molecules were titrated into an HTRF assay in which binding of the hGITRL FP to hGITR-Fc was measured. The human hGITR Fc was conjugated with europium cryptate and an anti-FLAG antibody conjugated with XL665 was used to detect the hGITRL FP protein. KD values were determined by curve fitting the analyzed data to a one site saturation binding equation with Prism 5.01 software (GraphPad).

Experiment [4] addresses T1, human GITR-Fc. Kind of experiment: HTRF competition; competitor GITRL-HA on GITR-Fc. Here is the method:
The effect of the hexameric GITRL FP molecules on human GITRL binding to human GITR was determined using a Homogeneous Time Resolved Fluorescence (HTRF) assay.
The hexameric GITRL FP molecules were titrated into an HTRF assay in which binding of GITRL-HA (hemagglutinin tag) to GITR-Fc was measured. The human GITR Fc was conjugated with europium cryptate and an anti-HA antibody conjugated with XL665 was used to detect the GITRL-HA protein. IC₅₀ values were determined by curve fitting the analyzed data to a four parameter logistic equation with Prism 5.01 software (GraphPad).

Experiment [5] addresses T2, human GITR expressed on cells (human, UniProt Q9Y5U5 26-241).
T2 sequence: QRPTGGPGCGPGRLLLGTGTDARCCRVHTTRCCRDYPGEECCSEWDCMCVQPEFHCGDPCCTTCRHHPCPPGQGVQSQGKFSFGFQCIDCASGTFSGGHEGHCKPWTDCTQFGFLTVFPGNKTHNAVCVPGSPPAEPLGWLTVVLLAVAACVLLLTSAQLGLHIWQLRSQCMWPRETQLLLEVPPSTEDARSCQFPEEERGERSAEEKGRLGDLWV
Kind of experiment: cell-based or functional assay.

B1: hGITRL FP wt (Fc fusion)
chain: QLETAKEPCMAKFGPLPSKWQMASSEPPCVNKVSDWKLEILQNGLYLIYGQVAPNANYNDVAPFEVRLYKNKDMIQTLTNKSKIQNVGGTYELHVGDTIDLIFNSEHQVLKNNTYWGIILLANPQFIS
notes: not shown: detection with anti-FLAG antibody implies a FLAG e
Take B1: the IC50 in experiment [1] turned out to be 0.696 nM; in experiment [2] it was 0.631 nM. The dissociation constant Kd in experiment [3] was found to be 1.23 nM.

B2: hGITRL FP N161D (Fc fusion)
chain: QLETAKEPCMAKFGPLPSKWQMASSEPPCVNKVSDWKLEILQNGLYLIYGQVAPNANYNDVAPFEVRLYKNKDMIQTLTNKSKIQNVGGTYELHVGDTIDLIFNSEHQVLKDNTYWGIILLANPQFIS
notes: as for B1
For the molecule B2, the concentration for half-maximal inhibition (IC50) in experiment [1] came out at 0.63 nM. In addition, the dissociation constant (Kd) in experiment [3] turned out to be 1.08 nM.

B3: hexameric GITRL FP (GCN4 pII) (Fc fusion, not shown: a dimerising Fc or GST; small tags and cut ends)
chain (part 1 of 2): not shown
chain (part 2 of 2): LQLETAKEPCMAKFGPLPSKWQMASSEPPCVNKVSDWKLEILQNGLYLIYGQVAPNANYNDVAPFEVRLYKNKDMIQTLTNKSKIQNVGGTYELHVGDTIDLIFNSEHQVLKNNTYWGIILLANPQFIS
B3 returned an IC50 in experiment [4] of 1.06 nM. For the same molecule, in experiment [5], the “EC50 (nM), human GITR transfected NF-κB luciferase gene reporter cell line” value (“EC50 (nM)” below) is 1.02 nM.

B4: hexameric GITRL FP (Matrilin 1 wt) (Fc fusion, not shown: a dimerising Fc or GST; small tags and cut ends)
chain (part 1 of 2): CACESLVKFQAKVEGLLQALTRKLEAVSKRLAILENTVV
chain (part 2 of 2): LQLETAKEPCMAKFGPLPSKWQMASSEPPCVNKVSDWKLEILQNGLYLIYGQVAPNANYNDVAPFEVRLYKNKDMIQTLTNKSKIQNVGGTYELHVGDTIDLIFNSEHQVLKNNTYWGIILLANPQFIS
B4 yielded an IC50 in experiment [4] of 1.36 nM. In addition, the “EC50 (nM)” value in experiment [5] came to 1.12 nM.

B5: hexameric GITRL FP (Coronin 1a wt) (Fc fusion, not shown: a dimerising Fc or GST; small tags and cut ends)
chain (part 1 of 2): VSRLEEEMRKLQATVQELQKRLDRLEETVQAK
chain (part 2 of 2): LQLETAKEPCMAKFGPLPSKWQMASSEPPCVNKVSDWKLEILQNGLYLIYGQVAPNANYNDVAPFEVRLYKNKDMIQTLTNKSKIQNVGGTYELHVGDTIDLIFNSEHQVLKNNTYWGIILLANPQFIS
In the case of B5, in experiment [4], the IC50 is 0.61 nM. The “EC50 (nM)” value in experiment [5] stood at 0.95 nM.

B6: hGITRL FP N129A (Fc fusion)
chain: LQLETAKEPCMAKFGPLPSKWQMASSEPPCVNKVSDWKLEILQNGLYLIYGQVAPNANYNDVAPFEVRLYKNKDMIQTLTAKSKIQNVGGTYELHVGDTIDLIFNSEHQVLKNNTYWGIILLANPQFIS
notes: also called N129A mutated hGITRL FP; not shown: detection with anti-FLAG antibody implies a FLAG e
As to B6, the Kd in experiment [3] stood at 3.77 nM.

B7: hexameric GITRL FP (DMPK wt) (Fc fusion, not shown: a dimerising Fc or GST; small tags and cut ends)
chain (part 1 of 2): EAEAEVTLRELQEALEEEVLTRQSLSREMEAIRTDNQNFASQLREAEARNRDLEAHVRQLQERMELLQAE
chain (part 2 of 2): LQLETAKEPCMAKFGPLPSKWQMASSEPPCVNKVSDWKLEILQNGLYLIYGQVAPNANYNDVAPFEVRLYKNKDMIQTLTNKSKIQNVGGTYELHVGDTIDLIFNSEHQVLKNNTYWGIILLANPQFIS
Consider B7, for which the 50% inhibitory concentration (IC50) in experiment [4] worked out at 2.73 nM. Besides, the “EC50 (nM)” value in experiment [5] came out at 1.37 nM.

B8: hGITRL FP N129A/N161D (Fc fusion)
chain: LQLETAKEPCMAKFGPLPSKWQMASSEPPCVNKVSDWKLEILQNGLYLIYGQVAPNANYNDVAPFEVRLYKNKDMIQTLTAKSKIQNVGGTYELHVGDTIDLIFNSEHQVLKDNTYWGIILLANPQFIS
notes: as for B1
B8 came in with an equilibrium dissociation constant (Kd) in experiment [3] of 11.8 nM.

B9: hexameric GITRL FP (Coronin 1a variant) (Fc fusion, not shown: a dimerising Fc or GST; small tags and cut ends)
chain (part 1 of 2): ISRIEEEIRKINATVQELQKRIDRLEETVQAK
chain (part 2 of 2): LQLETAKEPCMAKFGPLPSKWQMASSEPPCVNKVSDWKLEILQNGLYLIYGQVAPNANYNDVAPFEVRLYKNKDMIQTLTNKSKIQNVGGTYELHVGDTIDLIFNSEHQVLKNNTYWGIILLANPQFIS
Regarding B9, the IC50 in experiment [4] came to 1.44 nM. For the same molecule, the “EC50 (nM)” value in experiment [5] came to 0.74 nM.

B10: hexameric GITRL FP (Langerin variant) (Fc fusion, not shown: a dimerising Fc or GST; small tags and cut ends)
chain (part 1 of 2): ISALNTKIRAIQGSIENMSKLIKRQNDIIQVVS
chain (part 2 of 2): LQLETAKEPCMAKFGPLPSKWQMASSEPPCVNKVSDWKLEILQNGLYLIYGQVAPNANYNDVAPFEVRLYKNKDMIQTLTNKSKIQNVGGTYELHVGDTIDLIFNSEHQVLKNNTYWGIILLANPQFIS
With B10, the IC50 in experiment [4] amounted to 2 nM. The “EC50 (nM)” value in experiment [5] was 0.75 nM.

B11: hexameric GITRL FP (Matrilin 1 variant) (Fc fusion, not shown: a dimerising Fc or GST; small tags and cut ends)
chain (part 1 of 2): CACESLVKFQAKVEGLIQALTRKLEAVSKRIAILENTVV
chain (part 2 of 2): LQLETAKEPCMAKFGPLPSKWQMASSEPPCVNKVSDWKLEILQNGLYLIYGQVAPNANYNDVAPFEVRLYKNKDMIQTLTNKSKIQNVGGTYELHVGDTIDLIFNSEHQVLKNNTYWGIILLANPQFIS
B11 gave an IC50 in experiment [4] of 0.83 nM. In addition, the “EC50 (nM)” value in experiment [5] worked out at 0.9 nM.

B12: hGITRL FP N92D (Fc fusion, not shown: a dimerising Fc or GST)
chain: LQLETAKEPCMAKFGPLPSKWQMASSEPPCVNKVSDWKLEILQDGLYLIYGQVAPNANYNDVAPFEVRLYKNKDMIQTLTNKSKIQNVGGTYELHVGDTIDLIFNSEHQVLKNNTYWGIILLANPQFIS
As to B12, the 50% inhibitory concentration (IC50) in experiment [2] came out at 0.587 nM.

B13: hexameric GITRL FP (DMPK variant) (Fc fusion, not shown: a dimerising Fc or GST; small tags and cut ends)
chain (part 1 of 2): IAEIEVTIRELQEAIEEEVLTRQSLSREIEAIRTDIQNIASQLREIEARIRDLEAHVRQLQERMELLQAE
chain (part 2 of 2): LQLETAKEPCMAKFGPLPSKWQMASSEPPCVNKVSDWKLEILQNGLYLIYGQVAPNANYNDVAPFEVRLYKNKDMIQTLTNKSKIQNVGGTYELHVGDTIDLIFNSEHQVLKNNTYWGIILLANPQFIS
For the molecule B13, the 50% inhibitory concentration (IC50) in experiment [4] is 2.43 nM. The “EC50 (nM)” value in experiment [5] came to 1.39 nM.

B14: hGITRL FP N104D (Fc fusion, not shown: a dimerising Fc or GST)
chain: LQLETAKEPCMAKFGPLPSKWQMASSEPPCVNKVSDWKLEILQNGLYLIYGQVAPDANYNDVAPFEVRLYKNKDMIQTLTNKSKIQNVGGTYELHVGDTIDLIFNSEHQVLKNNTYWGIILLANPQFIS
notes: also called N104D GITRL FP
B14 displayed an IC50 in experiment [2] of 0.529 nM.

The values are drawn from patent publication US20170073386A1 (AstraZeneca / MedImmune, published 2017).
